PMC4434323

Columns and labels:
[1] = target: T1, mbr-1 (T01C1.2) (Caenorhabditis elegans) (UniProt G5EGQ5)
T1 sequence: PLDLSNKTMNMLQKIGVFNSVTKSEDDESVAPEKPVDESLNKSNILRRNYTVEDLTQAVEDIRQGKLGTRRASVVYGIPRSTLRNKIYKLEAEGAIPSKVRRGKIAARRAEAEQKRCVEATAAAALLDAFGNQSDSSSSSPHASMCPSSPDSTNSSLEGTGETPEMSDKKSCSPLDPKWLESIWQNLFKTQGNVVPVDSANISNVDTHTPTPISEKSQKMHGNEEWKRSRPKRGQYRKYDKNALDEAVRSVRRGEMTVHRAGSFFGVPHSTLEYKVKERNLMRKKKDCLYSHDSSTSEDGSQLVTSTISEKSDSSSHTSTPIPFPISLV

[2] = target: T2, skn-1 (T19E7.2) (Caenorhabditis elegans) (UniProt P34707)
T2 sequence: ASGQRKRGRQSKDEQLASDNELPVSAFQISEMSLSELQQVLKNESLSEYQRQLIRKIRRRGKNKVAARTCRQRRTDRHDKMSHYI

[3] = target: T3, nhr-70 (Y51A2D.17) (Caenorhabditis elegans) (UniProt G5EEL3)
T3 sequence: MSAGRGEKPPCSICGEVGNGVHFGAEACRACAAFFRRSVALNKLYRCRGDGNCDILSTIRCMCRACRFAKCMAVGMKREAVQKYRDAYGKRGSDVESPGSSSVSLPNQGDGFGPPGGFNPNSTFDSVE

[4] = target: T4, hlh-12 (C28C12.8) (Caenorhabditis elegans) (UniProt Q18277)
T4 sequence: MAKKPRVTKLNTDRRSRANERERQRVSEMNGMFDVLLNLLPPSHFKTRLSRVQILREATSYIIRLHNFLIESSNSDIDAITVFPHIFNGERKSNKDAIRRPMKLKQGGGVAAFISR

[5] = target: gei-3 (T22H6.6) (Caenorhabditis elegans) (UniProt Q0G833)
Chain of gei-3 (T22H6.6) (Caenorhabditis elegans) (Q0G833 entry or part of it): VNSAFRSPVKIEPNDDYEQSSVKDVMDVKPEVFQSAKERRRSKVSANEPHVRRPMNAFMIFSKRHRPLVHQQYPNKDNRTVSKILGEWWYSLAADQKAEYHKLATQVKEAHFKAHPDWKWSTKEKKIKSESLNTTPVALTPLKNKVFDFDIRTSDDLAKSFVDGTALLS

[6] = target: T5, odr-7 (T18D3.2) (Caenorhabditis elegans) (UniProt P41933)
T5 sequence: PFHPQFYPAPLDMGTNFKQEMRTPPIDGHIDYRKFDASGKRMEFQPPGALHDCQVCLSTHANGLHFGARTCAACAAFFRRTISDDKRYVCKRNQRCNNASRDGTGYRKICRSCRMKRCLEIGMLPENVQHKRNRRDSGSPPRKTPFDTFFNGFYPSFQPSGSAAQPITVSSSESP

[7] = target: T6, nhr-232 (Y22F5A.1) (Caenorhabditis elegans) (UniProt A0A486WVR6)
T6 sequence: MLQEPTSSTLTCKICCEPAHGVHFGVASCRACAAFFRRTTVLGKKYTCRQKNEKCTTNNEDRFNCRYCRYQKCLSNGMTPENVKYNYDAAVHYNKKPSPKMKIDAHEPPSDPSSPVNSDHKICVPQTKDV

[8] = target: T7, nhr-142 (F44E7.8) (Caenorhabditis elegans) (UniProt J7SF93)
T7 sequence: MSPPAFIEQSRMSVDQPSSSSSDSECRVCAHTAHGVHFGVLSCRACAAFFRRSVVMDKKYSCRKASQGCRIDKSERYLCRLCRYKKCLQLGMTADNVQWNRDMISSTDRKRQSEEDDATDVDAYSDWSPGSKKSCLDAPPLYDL

[9] = target: T8, nhr-42 (C33G8.6) (Caenorhabditis elegans) (UniProt O76828)
T8 sequence: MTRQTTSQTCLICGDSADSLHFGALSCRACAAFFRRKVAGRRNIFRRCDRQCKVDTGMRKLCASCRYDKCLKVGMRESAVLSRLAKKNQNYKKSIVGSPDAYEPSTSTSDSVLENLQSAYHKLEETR

[10] = target: T9, nhr-66 (T09A12.4) (Caenorhabditis elegans) (UniProt H2KYJ8)
T9 sequence: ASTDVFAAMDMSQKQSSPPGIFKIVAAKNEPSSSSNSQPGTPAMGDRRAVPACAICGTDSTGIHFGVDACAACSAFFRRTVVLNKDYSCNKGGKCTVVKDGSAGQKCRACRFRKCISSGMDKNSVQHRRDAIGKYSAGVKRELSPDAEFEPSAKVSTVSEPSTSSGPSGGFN

## AGGCCCCT (double strand) [8-mer AGGCCCCT]
[1]
  binding signal (PBM E-score (-0.5 to 0.5)): 0.491

## ATATCATC (double strand) [8-mer ATATCATC]
[2]
  binding signal (PBM E-score (-0.5 to 0.5)): 0.485

## GATGACTA (double strand) [8-mer GATGACTA]
[2]
  binding signal (PBM E-score (-0.5 to 0.5)): 0.489

## CGGCTACA (double strand) [8-mer CGGCTACA]
[3]
  binding signal (PBM E-score (-0.5 to 0.5)): 0.488

## AACAGATG (double strand) [8-mer AACAGATG]
[4]
  binding signal (PBM E-score (-0.5 to 0.5)): 0.468

## CATTCATA (double strand) [8-mer CATTCATA]
[5]
  binding signal (PBM E-score (-0.5 to 0.5)): 0.474

## ACCAGCTG (double strand) [8-mer ACCAGCTG]
[4]
  binding signal (PBM E-score (-0.5 to 0.5)): 0.456

## ATCAATGG (double strand) [8-mer ATCAATGG]
[5]
  binding signal (PBM E-score (-0.5 to 0.5)): 0.477

## ATGACAAT (double strand) [8-mer ATGACAAT]
[2]
  binding signal (PBM E-score (-0.5 to 0.5)): 0.495

## GGGGGCCA (double strand) [8-mer GGGGGCCA]
[1]
  binding signal (PBM E-score (-0.5 to 0.5)): 0.495

## AATGTCAT (double strand) [8-mer AATGTCAT]
[2]
  binding signal (PBM E-score (-0.5 to 0.5)): 0.487

## ACAGATGG (double strand) [8-mer ACAGATGG]
[4]
  binding signal (PBM E-score (-0.5 to 0.5)): 0.478

## GGGGCCAA (double strand) [8-mer GGGGCCAA]
[1]
  binding signal (PBM E-score (-0.5 to 0.5)): 0.488

## AACAGCTG (double strand) [8-mer AACAGCTG]
[4]
  binding signal (PBM E-score (-0.5 to 0.5)): 0.481

## GGCTACAA (double strand) [8-mer GGCTACAA]
[3]
  binding signal (PBM E-score (-0.5 to 0.5)): 0.492
[6]
  binding signal (PBM E-score (-0.5 to 0.5)): 0.467

## AAGGCCCC (double strand) [8-mer AAGGCCCC]
[1]
  binding signal (PBM E-score (-0.5 to 0.5)): 0.489

## AGGTCACA (double strand) [8-mer AGGTCACA]
[7]
  binding signal (PBM E-score (-0.5 to 0.5)): 0.455
[8]
  binding signal (PBM E-score (-0.5 to 0.5)): 0.486
[9]
  binding signal (PBM E-score (-0.5 to 0.5)): 0.486

## TGACTACA (double strand) [8-mer TGACTACA]
[3]
  binding signal (PBM E-score (-0.5 to 0.5)): 0.491

## AATGAATG (double strand) [8-mer AATGAATG]
[5]
  binding signal (PBM E-score (-0.5 to 0.5)): 0.481

## AGGGGCCA (double strand) [8-mer AGGGGCCA]
[1]
  binding signal (PBM E-score (-0.5 to 0.5)): 0.492

## ACATATGT (double strand) [8-mer ACATATGT]
[4]
  binding signal (PBM E-score (-0.5 to 0.5)): 0.476

## GACTACAC (double strand) [8-mer GACTACAC]
[3]
  binding signal (PBM E-score (-0.5 to 0.5)): 0.49
[10]
  binding signal (PBM E-score (-0.5 to 0.5)): 0.484

## GATGATAA (double strand) [8-mer GATGATAA]
[2]
  binding signal (PBM E-score (-0.5 to 0.5)): 0.488

## GGCCCCCC (double strand) [8-mer GGCCCCCC]
[1]
  binding signal (PBM E-score (-0.5 to 0.5)): 0.498

## TCAATGAA (double strand) [8-mer TCAATGAA]
[5]
  binding signal (PBM E-score (-0.5 to 0.5)): 0.485

## TGGCTACA (double strand) [8-mer TGGCTACA]
[3]
  binding signal (PBM E-score (-0.5 to 0.5)): 0.48

## TCCATTCA (double strand) [8-mer TCCATTCA]
[5]
  binding signal (PBM E-score (-0.5 to 0.5)): 0.48

## AGGGGGGC (double strand) [8-mer AGGGGGGC]
[1]
  binding signal (PBM E-score (-0.5 to 0.5)): 0.491

## AGTCACAC (double strand) [8-mer AGTCACAC]
[7]
  binding signal (PBM E-score (-0.5 to 0.5)): 0.48
[8]
  binding signal (PBM E-score (-0.5 to 0.5)): 0.49
[9]
  binding signal (PBM E-score (-0.5 to 0.5)): 0.489

## GGGGCCTA (double strand) [8-mer GGGGCCTA]
[1]
  binding signal (PBM E-score (-0.5 to 0.5)): 0.487

## ATGGCCCC (double strand) [8-mer ATGGCCCC]
[1]
  binding signal (PBM E-score (-0.5 to 0.5)): 0.487

## CATTGATA (double strand) [8-mer CATTGATA]
[5]
  binding signal (PBM E-score (-0.5 to 0.5)): 0.472

## AACATATG (double strand) [8-mer AACATATG]
[4]
  binding signal (PBM E-score (-0.5 to 0.5)): 0.465

## ACAGATGT (double strand) [8-mer ACAGATGT]
[4]
  binding signal (PBM E-score (-0.5 to 0.5)): 0.478

## ACATCTGG (double strand) [8-mer ACATCTGG]
[4]
  binding signal (PBM E-score (-0.5 to 0.5)): 0.481
